Results on 2 molecules are retold here after patent publication US8663616B2, “Enzymatic peracid generation for use in oral care products” (E I du Pont de Nemours and Company, priority 2010, dated 2014).

The nature of test [1]: Perhydrolase activity of enzyme bound to hydroxyapatite discs, ABTS (Example 7). The class given is biochemical. The conditions noted are these: for Avg Absorbance Background subtract: background = no enzyme, no HAP (0.775); for Avg Absorbance at 5 min: discs incubated in 20 μM enzyme, 6 washes, 0.346% triacetin, 3.46 mM H2O2, A405; for PAA conc μM per disc: enzyme bound to hydroxyapatite disc, 5 min, no enzyme control 1.2. The method, then: (§1) The detection of peracetic acid followed the method described in Pinkernell et. al. (Analyst, 1997, 122, 567) using colorimetric detection of 2,2′-azino-bis(3-ethylbenzothiazoline(-6-sulfonate (ABTS) oxidation by peracetic acid. Following the formation of peracetic acid with the addition of triacetin and hydrogen peroxide, 90 μL of solution was added to 10 μL of 0.1 M H3PO4 in a well plate. 50 μL of 1 M acetic acid, 50 μL of 0.5 g/L ABTS and 50 μL of 0.002 g/L of KI was added. The solution was allowed to develop for 5 min. The absorbance of the solution was measured at 405 nm using a microplate reader. The peracetic acid concentration was calculated based on a standard curve developed simultaneously using peracetic acid reagent solution.
The perhydrolase activity of the fusions once bound to HAP discs surfaces was determined with the same ABTS method. Hydroxyapatite discs (HiMed Inc, Old Bethpage, N.Y.; 5 mm dia.×1.8 mm thick) were incubated in 20 μM enzyme solution (50 mM potassium phosphate buffer pH 7.2) for 60 min followed by 6 times of washes (50 mM potassium phosphate buffer pH 7.2). The discs with enzyme adsorbed were transferred to new wells and 200 μL of phosphate buffer (10 mM pH 7.2), 30 μL of 3% triacetin (final concentration of 0.346%) and 30 μL of 30 mM H2O2 (final concentration of 3.46 mM) were added. The solution was allowed to incubate at room temperature for 5 min. 90 μL of solution was pipetted to a new well containing 10 μL of 100 mM H3PO4. 50 μL of acetic acid, 50 μL KI, 50 μL ABTS were added as described above. The solution was developed for 5 min at room temperature and read at A405 nm.

Test [2] can be described thus: Two-step bleaching of coffee-tea stained bovine enamel, repeated rounds (Example 17). Further details: scale not given here. The conditions noted are these: for Whiteness Index Rd1: after round 1 of the 2-step process; for Whiteness Index Rd2: after round 2; for Whiteness Index Rd3: after round 3; for Whiteness Index Rd4: after round 4; for Whiteness Index Rd5: after round 5; for ΔWI: before to round 5; for Whiteness Index Before: two-step: 20 μM enzyme (or buffer) 10 min 37° C., rinsed, then 100 mM triacetin, 100 mM H2O2 10 min 37° C., before treatment. The method, then:
Bovine enamel incisors were prepared as indicated in Example 1. The stained enamel blocks were embedded in SILLY PUTTY® (Crayola LLC, Easton, Pa.) filled well, a 24-well plate to protect the dentin backside from solution exposure. A solution of 20 μM of each enzyme in 10 mM phosphate buffer, pH 7.2 was prepared and 500 μL of the enzyme solution was added to each enamel blocks and incubated for 10 min at 37° C. The enamel block was then rinsed three times with an additional 500 μL of buffer each time. The enamel blocks were transferred and embedded in a fresh putty well for the whitening process. A solution (200 μL) containing 100 mM phosphate buffer, 100 mM triacetin, 100 mM H2O2, pH 7.2 was added to the enamel and incubated for 10 min at 37° C. The enamel block was removed from the well using forceps, then rinsed and stored in a 1.5 mL of water filled well for color measurements. The 2-step process was repeated 5 times (50 min total). Each sample data point represents 2 repeats of independent enamel blocks.

The nature of test [3]: Maximum peracetic acid by targeted and untargeted CE-7 perhydrolase with propylene glycol diacetate. The class given is biochemical. The conditions noted are these: substrate propylene glycol diacetate; same reaction conditions as Table 20. Here is the method: (§2) These ester substrates were tested for peracetic acid production using a targeted C277S perhydrolase variant, EZ-7 under the same reaction conditions used to generate date for Table 20. Peracetic acid production using propylene glycol diacetate or sucrose octaacetate with the EZ-7 perhydrolase system is shown in Table 21.

Test [4] is described as follows: Perhydrolase activity in solution, ABTS detection of peracetic acid (Example 7). Type of test: biochemical. The conditions noted are these: 10 μL of 0.625 μg/mL enzyme, triacetin, H2O2, pH 7.2, 5 min. Here is the method: as §1
The enzyme activity in solution was measured by making a solution of 0.625 μg/mL of each enzyme in 50 mM phosphate buffer, pH 7.2. 10 μL of enzyme solution was mixed with 90 μL buffer, 30 μL of 3% triacetin in water, 30 μL of 30 mM H2O2. The solution was incubated for 5 min. A 90 μL aliquot was removed for detection via ABTS oxidation as noted above.

The nature of test [5]: T. maritima C277S/C277T constructs, peracetic acid in solution (Example 11). Type of test: biochemical. The conditions noted are these: 0.5 μM enzyme, 100 mM triacetin, 100 mM H2O2, pH 7.2, 10 min, 37° C.; no enzyme 114. The gist of the method:
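Each perhydrolase at 0.5 μM incubated with 100 mM triacetin and 100 mM H2O2 in 10 mM phosphate buffer pH 7.2, 10 min at 37° C, then stopped with H3PO4. Peracetic acid quantified by ABTS/KI oxidation, absorbance at 405 nm, against a peracetic acid standard curve.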

Test [6] is described as follows: Peracetic acid generated after each round of two-step whitening, ABTS (Example 17). The conditions noted are these: for PAA (ppm) generated after each round of whitening, Rd2: round 2; for PAA (ppm) generated after each round of whitening, Rd3: round 3; for PAA (ppm) generated after each round of whitening, Rd4: round 4; for PAA (ppm) generated after each round of whitening, Rd5: round 5; for PAA (ppm) generated after each round of whitening, Rd1: step 1 enzyme or buffer, step 2 triacetin/H2O2, round 1. Type of test: biochemical, bovine. The method, then: The samples were diluted 1:100 with 100 mM phosphate buffer and added to ABTS detection reagent as noted in Example 8. Each sample data point represents 2 repeats of independent enamel blocks.

Test [7] is described as follows: T. maritima C277S/C277T constructs, peracetic acid when bound to bovine enamel (Example 11). The class given is biochemical. The conditions noted are these: bovine enamel exposed to 10 μM enzyme, 4 washes; 100 mM triacetin, 100 mM H2O2, 30 min, 37° C.; no enzyme 570. The gist of the method:
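Enamel blocks equilibrated in 10 mM potassium phosphate, pH 7.2, were incubated with 10 μM enzyme for 30 min at 37° C and washed free of unbound enzyme. Bound enzyme then reacted 30 min at 37° C with 100 mM H2O2 and 100 mM triacetin in 100 mM phosphate, pH 7.2. Peracetic acid was measured by ABTS oxidation (A405) against a standard curve; mean of 3 blocks.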

Test [8] in a line: Maximum peracetic acid by targeted and untargeted CE-7 perhydrolase with sucrose octaacetate. The conditions noted are these: substrate sucrose octaacetate; same reaction conditions as Table 20. Type of test: biochemical. Here is the method: as §2

B1: EZ-7: C277S-link1-DenP308-H6, SEQ ID NO: 429 (protein)
chain: MAFFDLPLEELKKYRPERYEEKDFDEFWEETLAESEKFPLDPVFERMESHLKTVEAYDVTFSGYRGQRIKGWLLVPKLEEEKLPCVVQYIGYNGGRGFPHDWLFWPSMGYICFVMDTRGQGSGWLKGDTPDYPEGPVDPQYPGFMTRGILDPRTYYYRRVFTDAVRAVEAAASFPQVDQERIVIAGGSQGGGIALAVSALSKKAKALLCDVPFLCHFRRAVQLVDTHPYAEITNFLKTHRDKEEIVFRTLSYFDGVNFAARAKIPALFSVGLMDNISPPSTVFAAYNYYAGPKEIRIYPYNNHEGGGSFQAVEQVKFLKKLFEKGGPGSGGAGSPGSAGGPGSTKPPRTPTANTSRPHHNFGSGGGGSPHHHHHH
As to B1, in test [1], the “Avg Absorbance Background subtract” value is on record as 1.450, the “Avg Absorbance at 5 min” value is on record as 1.45 and the “PAA conc μM per disc” value came out at 23.5 μM per disc. The “activity when bound to hydroxyapatite (in words)” value in test [1] (with addition of triacetin and hydrogen peroxide) was “active enzymes when bound to hydroxyapatite”. For the same molecule, in test [2], the “Whiteness Index Rd1” value is reported as −106.7, the “Whiteness Index Rd2” value is given as −96.0, the “Whiteness Index Rd3” value is −88.7 and the “Whiteness Index Rd4” value is −85.7. In test [2], the “Whiteness Index Rd5” value is listed as −76.6, the ΔWI worked out at 44.2 and the “Whiteness Index Before” value is listed as −120.8. For the same molecule, the “Maximum Peracetic Acid (ppm), Propylene glycol diacetate” value in test [3] is 2109 ppm. Also, the “Avg Absorbance 405 nm Background subtracted” value in test [4] was found to be 1.619. Moreover, the “Peracetic acid (ppm) In Solution” value in test [5] was found to be 5519 ppm. Besides, in test [6], the “PAA (ppm) generated after each round of whitening, Rd2” value was found to be 496.7 ppm; the “PAA (ppm) generated after each round of whitening, Rd3” value was 716.5 ppm; the “PAA (ppm) generated after each round of whitening, Rd4” value came out at 998.5 ppm; the “PAA (ppm) generated after each round of whitening, Rd5” value was 1224.5 ppm. Also, the “PAA (ppm) generated after each round of whitening, Rd1” value in test [6] was found to be 383.5 ppm. In addition, the “Peracetic acid (ppm) On Enamel” value in test [7] stood at 1040 ppm. The “Maximum Peracetic Acid (ppm), Sucrose octaacetate” value in test [8] is on record as 2070 ppm.

B2: EZ-1: Thermotoga maritima acetyl xylan esterase variant C277S, untargeted perhydrolase, SEQ ID NO: 424 (protein, listed as Thermotoga maritima)
chain: MAFFDLPLEELKKYRPERYEEKDFDEFWEETLAESEKFPLDPVFERMESHLKTVEAYDVTFSGYRGQRIKGWLLVPKLEEEKLPCVVQYIGYNGGRGFPHDWLFWPSMGYICFVMDTRGQGSGWLKGDTPDYPEGPVDPQYPGFMTRGILDPRTYYYRRVFTDAVRAVEAAASFPQVDQERIVIAGGSQGGGIALAVSALSKKAKALLCDVPFLCHFRRAVQLVDTHPYAEITNFLKTHRDKEEIVFRTLSYFDGVNFAARAKIPALFSVGLMDNISPPSTVFAAYNYYAGPKEIRIYPYNNHEGGGSFQAVEQVKFLKKLFEKG
Take B2: in test [1], the “Avg Absorbance Background subtract” value is 0.126, the “Avg Absorbance at 5 min” value stood at 0.901 and the “PAA conc μM per disc” value was found to be 3.5 μM per disc. Besides, in test [2], the “Whiteness Index Rd1” value was −129.5, the “Whiteness Index Rd2” value is reported as −129.5, the “Whiteness Index Rd3” value was −129.2 and the “Whiteness Index Rd4” value is on record as −125.1. For the same molecule, in test [2], the “Whiteness Index Rd5” value is given as −122.1, the ΔWI is 17.9 and the “Whiteness Index Before” value is on record as −140.0. Moreover, the “Maximum Peracetic Acid (ppm), Propylene glycol diacetate” value in test [3] is 2165 ppm. Moreover, the “Avg Absorbance 405 nm Background subtracted” value in test [4] is on record as 1.830. Further, the “Peracetic acid (ppm) In Solution” value in test [5] stood at 4270 ppm. Moreover, in test [6], the “PAA (ppm) generated after each round of whitening, Rd2” value is listed as 41.0 ppm; the “PAA (ppm) generated after each round of whitening, Rd3” value is reported as 30.2 ppm; the “PAA (ppm) generated after each round of whitening, Rd4” value is 39.3 ppm; the “PAA (ppm) generated after each round of whitening, Rd5” value is given as 47.1 ppm. The “PAA (ppm) generated after each round of whitening, Rd1” value in test [6] is recorded as 33.2 ppm. Besides, the “Peracetic acid (ppm) On Enamel” value in test [7] was 628 ppm. Moreover, in test [8], the “Maximum Peracetic Acid (ppm), Sucrose octaacetate” value amounted to 2768 ppm.
